{"source": "paper PMC8786603", "assay_in_all_cases": "cryo-EM structure", "key": {"[1]": {"molecular_target": "SARS-CoV-2 Delta prefusion-stabilized soluble trimeric spike ectodomain (S-trimer) (SARS-CoV-2) (UniProt P0DTC2)"}, "[2]": {"molecular_target": "SARS-CoV-2 Omicron prefusion-stabilized soluble trimeric spike ectodomain (S-trimer) (SARS-CoV-2) (UniProt P0DTC2)"}, "[3]": {"molecular_target": "SARS-CoV-2 Omicron prefusion-stabilized soluble trimeric spike ectodomain (S-trimer) (SARS-CoV-2) (UniProt P0DTC2)", "remark": "listed apart in the source"}}, "note": "Read-outs that look alike come from different tables or passages of the source."}
{"substance": "SARS-CoV-2 Delta prefusion-stabilized soluble trimeric spike ectodomain (S-trimer) (from UniProt P0DTC2 14-1208) (natural protein)", "values": [{"measurement": "stoichiometry N", "setting": "[1]", "result": 3, "unit": "protomers"}]}
{"substance": "SARS-CoV-2 Omicron prefusion-stabilized soluble trimeric spike ectodomain (S-trimer) (from UniProt P0DTC2 14-1208) (natural protein)", "values": [{"measurement": "stoichiometry N", "setting": "[2]", "result": 3, "unit": "protomers"}, {"measurement": "stoichiometry N", "setting": "[3]", "result": 3, "unit": "protomers"}]}
